Consider seven molecules from patent US20250361312A1 (INVOX PHARMA, published 2025).

One test addresses T1, human TNFRI (human, UniProt P19438 30-211, limits assumed).
T1 construct: Amine-coupled to a CM5 chip
T1 sequence (looked up): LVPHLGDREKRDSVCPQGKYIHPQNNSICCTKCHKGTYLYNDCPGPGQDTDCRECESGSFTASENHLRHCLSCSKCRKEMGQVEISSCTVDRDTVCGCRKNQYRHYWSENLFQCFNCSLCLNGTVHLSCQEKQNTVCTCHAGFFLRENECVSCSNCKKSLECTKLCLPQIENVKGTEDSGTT
Description: SPR (Biacore T200), receptor on CM5 chip. For orientation: Surface plasmon resonance follows binding to a sensor surface in real time, without labels.

A further test has as its target T2, human TNFRII (human, UniProt P20333 23-257, limits assumed).
T2 construct: Amine-coupled to a CM5 chip
T2 sequence (looked up): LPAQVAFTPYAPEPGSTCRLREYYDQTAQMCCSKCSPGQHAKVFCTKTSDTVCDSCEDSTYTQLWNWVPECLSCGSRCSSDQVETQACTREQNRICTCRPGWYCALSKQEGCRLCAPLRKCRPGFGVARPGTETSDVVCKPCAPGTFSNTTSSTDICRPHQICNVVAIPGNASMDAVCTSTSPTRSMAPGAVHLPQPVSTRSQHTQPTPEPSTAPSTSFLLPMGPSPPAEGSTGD
Description: SPR (Biacore T200), receptor on CM5 chip.

Another test addresses T3, human NGFR (human, UniProt P08138 29-250, limits assumed).
T3 construct: Amine-coupled to a CM5 chip
T3 sequence (looked up): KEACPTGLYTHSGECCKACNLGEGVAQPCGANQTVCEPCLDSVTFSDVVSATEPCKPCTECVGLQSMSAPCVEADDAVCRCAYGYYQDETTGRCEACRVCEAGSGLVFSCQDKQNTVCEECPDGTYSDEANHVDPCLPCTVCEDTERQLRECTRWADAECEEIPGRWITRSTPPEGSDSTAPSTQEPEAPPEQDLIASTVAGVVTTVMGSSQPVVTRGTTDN
In words: SPR (Biacore T200), receptor on CM5 chip.

The target of another test is T4, human CD137 (human, UniProt Q07011 24-186, limits assumed).
T4 construct: Amine-coupled to a CM5 chip; also called 4-1BB
Description: SPR (Biacore T200), receptor on CM5 chip.

A further test concerns the target T5, human CD40 (human, UniProt P25942 21-193, limits assumed).
T5 construct: Amine-coupled to a CM5 chip
Description: SPR (Biacore T200), receptor on CM5 chip.

Test [1] deals with T6, human OX40 receptor, cell-expressed (DO11.10-hOX40) (human, UniProt P43489 29-277).
T6 construct: also called CD134; TNFRSF4
T6 sequence: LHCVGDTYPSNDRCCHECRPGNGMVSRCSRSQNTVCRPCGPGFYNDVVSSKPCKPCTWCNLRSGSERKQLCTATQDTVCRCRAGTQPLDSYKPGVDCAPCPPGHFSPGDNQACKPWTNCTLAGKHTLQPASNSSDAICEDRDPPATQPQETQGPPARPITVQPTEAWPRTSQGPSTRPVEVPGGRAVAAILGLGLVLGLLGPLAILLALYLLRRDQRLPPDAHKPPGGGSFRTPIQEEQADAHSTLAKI
In words: cell binding, DO11.10-hOX40 cells, soluble Fcab.

T5 sequence (P25942 21-193 limits assumed): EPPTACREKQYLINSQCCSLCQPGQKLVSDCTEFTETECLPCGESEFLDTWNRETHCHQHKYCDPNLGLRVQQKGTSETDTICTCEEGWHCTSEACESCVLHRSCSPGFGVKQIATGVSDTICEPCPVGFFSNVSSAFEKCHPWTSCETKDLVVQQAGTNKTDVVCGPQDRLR

B1: FS20-22-85AA/4420 (bispecific antibody, human IgG1, kappa, L234A L235A)
heavy: EVKLDETGGGLVQPGRPMKLSCVASGFTFSDYWMNWVRQSPEKGLEWVAQIRNKPYNYETYYSDSVKGRFTISRDDSKSSVYLQMNNLRVEDMGIYYCTGSYYGMDYWGQGTSVTVSSASTKGPSVFPLAPSSKSTSGGTAALGCLVKDYFPEPVTVSWNSGALTSGVHTFPAVLQSSGLYSLSSVVTVPSSSLGTQTYICNVNHKPSNTKVDKKVEPKSCDKTHTCPPCPAPEAAGGPSVFLFPPKPKDTLMISRTPEVTCVVVDVSHEDPEVKFNWYVDGVEVHNAKTKPREEQYNSTYRVVSVLTVLHQDWLNGKEYKCKVSNKALPAPIEKTISKAKGQPREPQVYTLPPSRDEYWDQEVSLTCLVKGFYPSDIAVEWESNGDEQFAYKTTPPVLDSDGSFFLYSKLTLDQYRWNPFDDFSCSVMHEALHNHYTQKSLSLSPG
light: DVVMTQTPLSLPVSLGDQASISCRSSQSLVHSNGNTYLRWYLQKPGQSPKVLIYKVSNRFSGVPDRFSGSGSGTDFTLKISRVEAEDLGVYFCSQSTHVPWTFGGGTKLEIKRTVAAPSVFIFPPSDEQLKSGTASVVCLLNNFYPREAKVQWKVDNALQSGNSQESVTEQDSKDSTYSLSSTLTLSKADYEKHKVYACEVTHQGLSSPVTKSFNRGEC
notes: Human IgG1 with anti-FITC 4420 Fab and LALA; The OX40 site is in the CH3 domain; also called FS20-22-85 Fcab in mock (4420 LALA) mAb^2 format
Turning to B1, the binding result in the test with human TNFRI, in the test with human TNFRII, with human NGFR, with human CD137 and with human CD40 was “no binding (tested: 1 µM)” each time.

B2: FS20-31-102AA/4420 (bispecific antibody, human IgG1, kappa, L234A L235A)
heavy: EVKLDETGGGLVQPGRPMKLSCVASGFTFSDYWMNWVRQSPEKGLEWVAQIRNKPYNYETYYSDSVKGRFTISRDDSKSSVYLQMNNLRVEDMGIYYCTGSYYGMDYWGQGTSVTVSSASTKGPSVFPLAPSSKSTSGGTAALGCLVKDYFPEPVTVSWNSGALTSGVHTFPAVLQSSGLYSLSSVVTVPSSSLGTQTYICNVNHKPSNTKVDKKVEPKSCDKTHTCPPCPAPEAAGGPSVFLFPPKPKDTLMISRTPEVTCVVVDVSHEDPEVKFNWYVDGVEVHNAKTKPREEQYNSTYRVVSVLTVLHQDWLNGKEYKCKVSNKALPAPIEKTISKAKGQPREPQVYTLPPSRDEWASGEVSLTCLVKGFYPSDIAVEWESNGQPEVDYKTTPPVLDSDGSFFLYSKLTVPYWRWGVPRTFSCSVMHEALHNHYTQKSLSLSPG
light: DVVMTQTPLSLPVSLGDQASISCRSSQSLVHSNGNTYLRWYLQKPGQSPKVLIYKVSNRFSGVPDRFSGSGSGTDFTLKISRVEAEDLGVYFCSQSTHVPWTFGGGTKLEIKRTVAAPSVFIFPPSDEQLKSGTASVVCLLNNFYPREAKVQWKVDNALQSGNSQESVTEQDSKDSTYSLSSTLTLSKADYEKHKVYACEVTHQGLSSPVTKSFNRGEC
notes: Human IgG1 with anti-FITC 4420 Fab and LALA; The OX40 site is in the CH3 domain; also called FS20-31-102 Fcab in mock (4420 LALA) mAb^2 format
Consider B2, for which the binding result in the test with human TNFRI, with human TNFRII, in the test with human NGFR, with human CD137 and with human CD40 was “no binding (tested: 1 µM)” in each case.

B3: FS20-31-94AA/4420 (bispecific antibody, human IgG1, kappa, L234A L235A)
heavy: EVKLDETGGGLVQPGRPMKLSCVASGFTFSDYWMNWVRQSPEKGLEWVAQIRNKPYNYETYYSDSVKGRFTISRDDSKSSVYLQMNNLRVEDMGIYYCTGSYYGMDYWGQGTSVTVSSASTKGPSVFPLAPSSKSTSGGTAALGCLVKDYFPEPVTVSWNSGALTSGVHTFPAVLQSSGLYSLSSVVTVPSSSLGTQTYICNVNHKPSNTKVDKKVEPKSCDKTHTCPPCPAPEAAGGPSVFLFPPKPKDTLMISRTPEVTCVVVDVSHEDPEVKFNWYVDGVEVHNAKTKPREEQYNSTYRVVSVLTVLHQDWLNGKEYKCKVSNKALPAPIEKTISKAKGQPREPQVYTLPPSRDEWEHGEVSLTCLVKGFYPSDIAVEWESNGIREHDYKTTPPVLDSDGSFFLYSKLTVPYWRWGGPGTFSCSVMHEALHNHYTQKSLSLSPG
light: DVVMTQTPLSLPVSLGDQASISCRSSQSLVHSNGNTYLRWYLQKPGQSPKVLIYKVSNRFSGVPDRFSGSGSGTDFTLKISRVEAEDLGVYFCSQSTHVPWTFGGGTKLEIKRTVAAPSVFIFPPSDEQLKSGTASVVCLLNNFYPREAKVQWKVDNALQSGNSQESVTEQDSKDSTYSLSSTLTLSKADYEKHKVYACEVTHQGLSSPVTKSFNRGEC
notes: Human IgG1 with anti-FITC 4420 Fab and LALA; also called FS20-31-94 Fcab in mock (4420 LALA) mAb^2 format
As to B3, the binding result in the test with human TNFRI, with human TNFRII, in the test with human NGFR, in the test with human CD137 and in the test with human CD40 was “no binding (tested: 1 µM)” in each case.

B4: FS20-31-115AA/4420 (bispecific antibody, human IgG1, kappa, L234A L235A)
heavy: EVKLDETGGGLVQPGRPMKLSCVASGFTFSDYWMNWVRQSPEKGLEWVAQIRNKPYNYETYYSDSVKGRFTISRDDSKSSVYLQMNNLRVEDMGIYYCTGSYYGMDYWGQGTSVTVSSASTKGPSVFPLAPSSKSTSGGTAALGCLVKDYFPEPVTVSWNSGALTSGVHTFPAVLQSSGLYSLSSVVTVPSSSLGTQTYICNVNHKPSNTKVDKKVEPKSCDKTHTCPPCPAPEAAGGPSVFLFPPKPKDTLMISRTPEVTCVVVDVSHEDPEVKFNWYVDGVEVHNAKTKPREEQYNSTYRVVSVLTVLHQDWLNGKEYKCKVSNKALPAPIEKTISKAKGQPREPQVYTLPPSRDEWASGEVSLTCLVKGFYPSDIAVEWESNGEQEFDYKTTPPVLDSDGSFFLYSKLTVPYWRWGAKRTFSCSVMHEALHNHYTQKSLSLSPG
light: DVVMTQTPLSLPVSLGDQASISCRSSQSLVHSNGNTYLRWYLQKPGQSPKVLIYKVSNRFSGVPDRFSGSGSGTDFTLKISRVEAEDLGVYFCSQSTHVPWTFGGGTKLEIKRTVAAPSVFIFPPSDEQLKSGTASVVCLLNNFYPREAKVQWKVDNALQSGNSQESVTEQDSKDSTYSLSSTLTLSKADYEKHKVYACEVTHQGLSSPVTKSFNRGEC
notes: Human IgG1 with anti-FITC 4420 Fab and LALA; The OX40 site is in the CH3 domain; also called FS20-31-115 Fcab in mock (4420 LALA) mAb^2 format
For B4, the binding result with human TNFRI, with human TNFRII, with human NGFR, with human CD137 and with human CD40 was “no binding (tested: 1 µM)” in each case.

B5: FS20-31-108AA/4420 (bispecific antibody, human IgG1, kappa, L234A L235A)
heavy: EVKLDETGGGLVQPGRPMKLSCVASGFTFSDYWMNWVRQSPEKGLEWVAQIRNKPYNYETYYSDSVKGRFTISRDDSKSSVYLQMNNLRVEDMGIYYCTGSYYGMDYWGQGTSVTVSSASTKGPSVFPLAPSSKSTSGGTAALGCLVKDYFPEPVTVSWNSGALTSGVHTFPAVLQSSGLYSLSSVVTVPSSSLGTQTYICNVNHKPSNTKVDKKVEPKSCDKTHTCPPCPAPEAAGGPSVFLFPPKPKDTLMISRTPEVTCVVVDVSHEDPEVKFNWYVDGVEVHNAKTKPREEQYNSTYRVVSVLTVLHQDWLNGKEYKCKVSNKALPAPIEKTISKAKGQPREPQVYTLPPSRDEWASGEVSLTCLVKGFYPSDIAVEWESNGEKEIDYKTTPPVLDSDGSFFLYSKLTVPYWRWGAKRTFSCSVMHEALHNHYTQKSLSLSPG
light: DVVMTQTPLSLPVSLGDQASISCRSSQSLVHSNGNTYLRWYLQKPGQSPKVLIYKVSNRFSGVPDRFSGSGSGTDFTLKISRVEAEDLGVYFCSQSTHVPWTFGGGTKLEIKRTVAAPSVFIFPPSDEQLKSGTASVVCLLNNFYPREAKVQWKVDNALQSGNSQESVTEQDSKDSTYSLSSTLTLSKADYEKHKVYACEVTHQGLSSPVTKSFNRGEC
notes: Human IgG1 with anti-FITC 4420 Fab and LALA; The OX40 site is in the CH3 domain; also called FS20-31-108 Fcab in mock (4420 LALA) mAb^2 format
For the molecule B5, the binding result with human TNFRI, with human TNFRII, in the test with human NGFR, in the test with human CD137 and in the test with human CD40 was “no binding (tested: 1 µM)” in each case.

B6: Fcab FS20-22 (designed binder)
chain: TCPPCPAPELLGGPSVFLFPPKPKDTLMISRTPEVTCVVVDVSHEDPEVKFNWYVDGVEVHNAKTKPREEQYNSTYRVVSVLTVLHQDWLNGKEYKCKVSNKALPAPIEKTISKAKGQPREPQVYTLPPSRDEYWDQEVSLTCLVKGFYPSDIAVEWESNGQPENNYKTTPPVLDSDGSFFLYSKLTVDQYRWNPGGYFSCSVMHEALHNHYTQKSLSLSPG
notes: Soluble Fcab
As to B6, the binding result in test [1] is reported as “binds”.

B7: Fcab FS20-31 (designed binder)
chain: TCPPCPAPELLGGPSVFLFPPKPKDTLMISRTPEVTCVVVDVSHEDPEVKFNWYVDGVEVHNAKTKPREEQYNSTYRVVSVLTVLHQDWLNGKEYKCKVSNKALPAPIEKTISKAKGQPREPQVYTLPPSRDEYYSGEVSLTCLVKGFYPSDIAVEWESNGQPENDYKTTPPVLDSDGSFFLYSKLTVPYWRWGGPGTFSCSVMHEALHNHYTQKSLSLSPG
notes: Soluble Fcab
As to B7, the binding result in test [1] is given as “binds”.
